We go through 18 sequences from a protein production outcome set (Wang et al. 2014).
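Note: failed if final PepcDB status was selected cloned or expressed and not failed if soluble or beyond.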

The data set in a line: label from the status in PepcDB records.
On to “MEHDLNDMMVFLAVVETGSFTLAADRLGMPKANVSRKVSRLEKNLAVTLLERSTRSQHLTEAGRRYLAHCKRIHEELDLATASVCELFHSYTGELKIGASVASGQQVLRPALGKFMRQYPDLKVQLNLVNRRVDFIEEGFDVVIRIGQLNDSMLIAKKLGAINRKIFASPSYLAKQGNPDKVEQLTEHQLLIMNPLNISGNKDLKLPLTSTDHETFTLDCQPRLLVDDFSMLKQAIVDGLGIGVLPDYMCRQEVASGQLVNILPDWGMAKVDIYALYPKHRAKIPKVKAFIDFVSELYGEVL”, for which the protein production result is “not failed”.

For the sequence “MEHKIVHVGDIPVANDKPFTLFAGMNVLESRDLAMQICEHYVKVTDKLGIPYVFKASFDKANRSSVHSYRGPGLEEGMKIFQELKETFGVKIITDVHTEAQAQPVADVVDVIQLPAFLARQTDLVEAMAKTGAVINVKKPQFMSPGQVGNIVEKFAECGNDKVILCERGSCHGYDNLVVDMLGFGVMKQASNGSPIIFDVTHSLQMRDPSGAASGGRREQTVELAKAGLATGIAGLFIEAHPNPDKARCDGPSALPLDKLEPFLAQMKALDDLIKSFAHIDIR”, the protein production result was “not failed”.

“MEHKKALFCIFAIIHLFFWIIFSSLNHFKLDTFLSYEIAFFSVLLIIFASYLNYKKVIIKKSKNYEKDFNFISSLFIKKKQNLSKIIHFKVLKDDLKPNVKEKIHFFAMFFTLFKLMAYVVLVAGFLFLHRQDKLDIFAYICGISSLLVCVFIFILYIKKYESKKNY”: the protein production result is recorded as “failed”.

For the sequence “MEIAKGVEMLQLEFQEFIIHPILLWNDEMAVLIDTGFPGQFEDIQVEMKRVGVSVDKLKVVILTHQDIDHIGSLPDLLENGVSDIKVYAHELDKRYIEGDLPLLKDVHVENPPKGKVSDTVIDGQELPYCGGILILHTPGHTPGHISLYLKQSKTLIAGDSMYSVNGKLGGIHAPTTLNIMEAQQSLKKYLNLDIESVVCYHGGLSKGNIKIQLQNL”, the protein production entry is “failed”.

As to “MEIAVERVFTKEILKRAVNLFHVTVEEKPLGDFENYIFKAKGDNDEDYVLRLTHSSHRSKQEVEAELDFLRYVAENGAKVAGPLYSTSRNLVEEIVAEDGTFFFASLFIYAKGEQVKGAESPYWGDAYFEAWGKAIGQLHRLTMDYPKTDYRDTWEEDESGIVNELEDGQVKEIAAVLMDEIKALPVERETFGLMHGDIHQGNFHYDGKELTIFDFDDAAYNYFIHDLAMVLYYSVLFTPWTAEEKTDFARKQLQVLRKGYEYEHRLADSWYESLPLFLRLRDIGLYGTLQKKFKGKDMPDNFLKLSEELYERIIKREAIVNI”, the protein production result was “failed”.

Consider “MEIEYIKDYRDINQEDDTVLILGYFDGLHRGHKALFDKAREVANKEGLKVVVFTFTESPKLAFSRFSPELLLHITYPKKRYEKFADYGVNKLYLVDFTSKFSKVSSDHFITHYIKNLKAKHIVVGFDYKFGHNRTDSDYLTRNFEGQVYTIEEIKEDHRKISATWIRKLIQEGNVVKANHLLGYDLSTRGRVVHGDARGRTIGFPTANLAPIDNTYLPADGVYVTNVIVANKIYRSMTSLGKNVTFGGKELRLEVNIFDFDEEIYGEIIEIVWLDKIRDMEKFEGIEDLTDRLEYDKRTALNWKKDSKLS”, for which the protein production entry is on record as “failed”.

As for “MEIIIYIFVSIAIISLQAITPFVIRKSECFGVNVGERANRNAELTQLKKQYVGQVILWTVLVAIIGIALIQGFHWSENIQAGIFIISMFGQLIVSFIIYYRFHHTTLQWKREKIESGEISTNSIIMVDTSFHRRKMVISYTWFVVPLLIFIITLAITAVFYPFAPEEFPVHFDMNGVVTDTVQKSVRAALLLPMLQLGMIALFIFINFVIARSKQTVENENPADSLKRNMLFRQISSKAMLIMCVILVIDFLVMQAVILLSLSPEIMMITMSISIILILLGTVLLAVKVGQGGSRLKFANEPDNVNKPIRDDDAFWKAGVIYFNRNDPALFVEKRFGIGWTINTARPVAWLTFVFIIAAIVFISILF”, the protein production entry is recorded as “failed”.

As to “MEIKAMFRDVSLSSRNFSEMLSRESKVVAALAAKSPLMAHANWRLKGNSLEEATLYPAFDADGSPSTPALAVLNEEQRGKKHSASHAAIWNGNTRPNEGASMSCHVSDEKVLPDRFSTRLGVPDCYAKSQDLADVVTTIVAAFNPLVVEASPEGYFDKQVFDDKPGVGWMLYLPKVITQQQVPEARALIPVSAKGKQTGTIIVSVTDAPFSVDNPEHVAIANRIEIRLVDQDLLPAYVDI”, the protein production result is given as “not failed”.

For “MEIKAYKKKNGTTAYKFKAYIGKKNGKSQYAEKSGFKTKADARAALHNIQEEIDNPTPKSSMTFKELYDEWLLVYEKEVQNSTYYKTTRAFEKHVLPVIGSTKLSDFTPMELQNFRNDLSEKLKFARKLFGMVRKVFNHAALLSYIQANPALPVTSQGIKKKVEEKKDFYDTDELRDFMALVEKTNDIKKIALFRILAFTGIRKGELLALEWKDYRKSTLDINKAISHSPVGYEILPPKANSNRLLSLDEKTCKILDELHQTYPESTRIFESENGGMLSPSKPRKWLLEITKEKEIEPIRIHAFRHTHASLLFESGMSLKQVQYRLGHADLKTTMNIYTHITKFAKDKIGQQFSDYIDF”, the protein production entry is on record as “failed”.

For the sequence “MEIKGESMQKSKFRRICVFCGSSQGKKSSYQDAAVDLGNELVSRNIDLVYGGGSIGLMGLVSQAVHDGGRHLTGETVGEVRAVADMHQRKAEMAKHSDAFIALPGGYGTLEELLEVITWAQLGIHDKPVGLLNVDGYYNSLLSFIDKAVEEGFISPTAREIIVSAPTAKELVKKLEVN”, the protein production result is on record as “not failed”.

For “MEIKLFCVFIVFIILFSPFVIALSYPDVNYTAENGIIFVQNVTTGEKKPLYLHGVSWFGFELKDHVVYGLDKRNWKDILKDVKRLGFNAIRLPFCSESIRPDTRPSPERINYELNPDLKNLTSLEIMEKIIEYANSIGLYILLDYHRIGCEEIEPLWYTENYSEEQYIKDWIFLAKRFGKYPNVIGADIKNEPHGEAGWGTGDERDFRLFAEKVGREILKVAPHWLIFVEGTQYTHVPNIDEIIEKKGWWTFWGENLMGVKDYPVRLPRGKVVYSPHVYGPSVYMMDYFKSPDFPNNMPIIWETHFGYLTDLNYTLVIGEWGGNYEGLDKVWQDAFVKWLIKKKIYNFFYWCLNPESGDTGGIFLDDWKTVNWEKMRVIYRLIKAANPEFEEPLYIILKTNATTSILGVGERIRIYWYTNGKVIDSNFAHSSEGEMNITVTKSMTLYIIVKKGNQTLRKELKLYVIGGNYGSNISTTQLVTPKKGGERISTSLKLAISLLFILLFVWYLLREKH”, the protein production result was “failed”.

Regarding “MEIKYLSLCILAGILFVSQVNASENNGKDDVKYAALTQKDLDALPVEKRASVLDELGFIHEYGIGVPMNRERALQYYKQACELGGNYGCYNVKYAYQYGDGVAKDSAQANKYAKKMNLDNLLIEQEYIDKFSQGIYAAKVLADTDKSQRPEFINALFNLLNNRPESDALFFSRIGFNQEKTFRLATLWVQDGDPQMDYQLGLLTLNDFSGHYVDEPYKARPASLKWFRAATEKGVVEAQSLLGGIYSGGEGDEWGIKPDIQEAQKWYGQAAEQGDSDAQIALGKIYYSGATGRTDYAKALALFTQVENDGTNSRSTMPLSWMYYNGLGTAPDCDKAWSYYKKASRYVGKKVEEKIFLSKCAADIQSRKNNADALPRVTLKKASIFSRGITAKPKECALIFQIGTDKIRNMANLHITLELKNADGMATEETLMIPPFGLNTLGIDMQNHDVDPLVTPYDLPLYTQDFCHGIGDIHFTLKSATATINGKNVDLLKADSVRFLDKE”, the protein production entry is on record as “failed”.

In the case of “MEILQFIGYGNMAQAILEGAHEILSKRFILEITGRNPEKIAPFLQEKNIQAQIVPYKDAIDIHQKFVFLLFKPYNLKDFNYQGQAKSVLSALAGVGFKALSDAIDSLHYLKCMPNIASKFALSSTAVCEKSPMPLISQKALSVIESFGNCVRVGHEELVDASVATNGSALAFLSLVANSLKDAGIREGLNARGSLELVKMSFKGFAKLLEKERPEMIIEQICTPKGATIEGLSVLEKKGVRGAFIEACHKSVKKMRL”, the protein production entry is reported as “failed”.

“MEINADFTKPVVIDTDQLEWRPSPMKGVERRMLDRIGGEVARATSIVRYAPGSRFSAHTHDGGEEFIVLDGVFQDEHGDYPAGTYVRNPPTTSHVPGSAEGCTIFVKLWQFDPADRTQFSKNMEAELGAPVEGISTSLLHEDERETVTHRKLEPGANLTSEAAGGIEVLVLDGDVTVNDEVLGRNAWLRLPEGEALSATAGARGAKIWMKTGHLRFVRTPEV”: the protein production entry is “not failed”.

For the sequence “MEINNNISSTIPLVDIVLVFCYVFSFYVIGPLTSSVIIALPLMFCCLYKKKWGYCLLLELKNSFIVRIFISQWLLIGIAVFYSCLHLTMELEYIKVLIAQMFHFICGIFIIIYLKYQKQYTTLKIEQTIIWAFLVQSIIQLIAMSIPSFAHFILYFSRAHDLQDAYGGGVRGLALSSGVGWSLGLAYGLIYIVFVKRYLLSGVNMKSTLIGILLLMGTIFAGRTGFVGACLGGIFFIISNQLSYRTKLMFVLKILLGVILFFLCIYFLFPSMTEHLVDNVFPFAFEPFYKMYYNDEFSTSSTDRLEEMWRVSTSVEEILYGSGSFIDTITGAYYKHIDIGILRNLFYWGIGGYILLIIYQLILIAPIKYNKIQRVSHFNMFFYKLLIIVYLFLLECKAVTIGLNKMTFSVIFLIAYFYFDEIHSKKYIAELR”, the protein production entry is reported as “failed”.

In the case of “MEIRTLALKTPEGQPFTMWIYQHDQFTLFPDDRLWPLALIFPGGGFAGYSEREVEAVALKFIAKGYQAAVVKYNLTSDGPFYPTAATIGLAALSYVKRHAQELNADFDHVVVSGFSAGGHLVAVMTALGAQSEFLNNHGFEETKLVPFAQILSYPVIDLTMGFPTSQHEMMAVTTDESYWHAQELVTSQTPPTFIWATRTDELVPVVNSLVYLAALGEHNVPFESHIYAAGVHGLAFGDLADSRYHHPEDVVPRVQNWFPMALGWLRTLYASKNSTEILEHHHHHH”, the protein production result is “failed”.

As to “MEISSGGSGMATRARGVVRDGTRALVLAVVGLPGALVLYVLAVVSLLLVPLGVGIVTTPWVLAGVRGFADWRRVVAAEWCGVRIPSGYRPVPVDANPWGRCFRLLSDRATWRDLIWLQVDMTAGFVTALLPAALLFYPLEGFALAAGLWRVFTDGTYIGWWYAFVPVSGQASALAAGALGVVFLVASYHLTPSLLRVHFLLTRAVLAPGQGELAERVRVLTETRRAAVDTSAAELRRIERDLHDGAQARLVAMGMDLGTIEALIEKDPAKARELLARARKSSADALTELRDLVRGIHPPVLAERGLGDAVRALALRVPIASEVNVDFDGRRAAAPVESAAYFAVSEVLTNAVKHAGADRVWIDLRHSDGMLRIAVTDNGRGGARIGTGSGLAGIERRLGTFDGVLAVSSPAGGPTMVSLEIPCELS”, the protein production result is “failed”.

On to “MEIVQEGIAKIIVPEIPKTVSSDMPVFYNPRMRVNRDLAVLGLEYLCKKLGRPVKVADPLSASGIRAIRFLLETSCVEKAYANDISSKAIEIMKENFKLNNIPEDRYEIHGMEANFFLRKEWGFGFDYVDLDPFGTPVPFIESVALSMKRGGILSLTATDTAPLSGTYPKTCMRRYMARPLRNEFKHEVGIRILIKKVIELAAQYDIAMIPIFAYSHLHYFKLFFVKERGVEKVDKLIEQFGYIQYCFNCMNREVVTDLYKFKEKCPHCGSKFHIGGPLWIGKLWDEEFTNFLYEEAQKREEIEKETKRILKLIKEESQLQTVGFYVLSKLAEKVKLPAQPPIRIAVKFFNGVRTHFVGDGFRTNLSFEEVMKKMEELKEKQKEFLEKKKQG”, for which the protein production entry is given as “not failed”.
